Data published in article PMC5014153.

Legend:
Experiment in all cases: EMSA
Settings in all cases: 25 mM Hepes pH 8.0, 40 mM KCl, 5 mM MgCl2, 1 mM DTT, 1 mM EDTA, 8% glycerol; 50 ng protein, 20 fmol probe; 30 min at 28 C; native PAGE
[1] = target: 6xHis-WRKY60 (Arabidopsis thaliana (Col-0?)) (UniProt Q9SK33)
[2] = target: T1, 6xHis-WRKY40 (Arabidopsis thaliana (Col-0?)) (UniProt Q9SAH7)
T1 sequence: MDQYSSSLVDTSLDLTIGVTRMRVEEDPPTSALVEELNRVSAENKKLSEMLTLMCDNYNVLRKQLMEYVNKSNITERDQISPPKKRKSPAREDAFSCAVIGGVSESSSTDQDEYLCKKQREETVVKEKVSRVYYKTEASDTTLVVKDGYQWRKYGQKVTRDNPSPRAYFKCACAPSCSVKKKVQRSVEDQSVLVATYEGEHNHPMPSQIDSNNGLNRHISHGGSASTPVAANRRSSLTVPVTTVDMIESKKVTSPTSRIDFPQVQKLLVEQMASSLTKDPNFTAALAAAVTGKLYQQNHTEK

[3] = target: 6xHis-WRKY18 (Arabidopsis thaliana (Col-0?)) (UniProt Q9C5T4)
6xHis-WRKY18 (Arabidopsis thaliana (Col-0?)), sequence (Q9C5T4 whole entry): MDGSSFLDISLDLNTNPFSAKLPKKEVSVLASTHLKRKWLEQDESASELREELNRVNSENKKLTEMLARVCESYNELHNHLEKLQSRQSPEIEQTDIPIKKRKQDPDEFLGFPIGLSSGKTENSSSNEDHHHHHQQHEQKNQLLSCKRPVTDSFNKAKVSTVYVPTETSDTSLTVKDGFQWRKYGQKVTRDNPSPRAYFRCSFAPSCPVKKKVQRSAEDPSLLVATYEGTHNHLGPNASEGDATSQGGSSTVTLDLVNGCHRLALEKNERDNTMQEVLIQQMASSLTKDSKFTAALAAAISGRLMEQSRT

6xHis-WRKY60 (Arabidopsis thaliana (Col-0?)), sequence (Q9SK33 whole entry): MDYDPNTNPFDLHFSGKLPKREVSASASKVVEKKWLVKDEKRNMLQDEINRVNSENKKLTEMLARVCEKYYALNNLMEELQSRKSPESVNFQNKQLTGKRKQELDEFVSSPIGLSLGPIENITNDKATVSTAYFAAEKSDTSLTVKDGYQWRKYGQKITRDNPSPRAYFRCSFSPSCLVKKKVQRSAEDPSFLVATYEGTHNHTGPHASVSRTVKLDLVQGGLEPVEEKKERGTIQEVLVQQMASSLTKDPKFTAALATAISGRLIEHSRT

With “AGTTGTAAAGTTCAGAAGGAAAAGTACTAAAATATGAAGTCAACGACAATCTTTAGAGTCAACCTTCCACTAAGAGTGTTGATTGGTTTGATGAAGCAGTGAAGGCTAGAAACTGAAGCAACTAGGGTTTGGGAAGTTACTGTTTTAACTTGTAACTGTTCGTTTGTTACTTCTTTGGTAAGGAAGTAAAACGGTGTTGTCTTATTGACCCAAAGTCTCCGCGGCTTGCTGAATAATCACAAACCTATTAAATATCC (double strand) [ProCRK5-2]” the binding [1] was “no binding”, the binding [2] was “binds” and the binding [3] was “binds”.
